Consider 5 molecules from publication PMC3717276, “Optimization and validation of mitochondria-based functional assay as a useful tool to identify BH3-like molecules selectively targeting anti-apoptotic Bcl-2 proteins” (BMC Biotechnology, 2013).

Ends that are not written are not given here. * marks the point of attachment. 6FAM = O=C1OC2(c3ccc(O)cc3Oc3cc(O)ccc32)c2cc(C(=O)*)ccc21

B4: Human Mcl-1 protein, residues 171-327, N-terminal 8xHis tag (domain or fragment, UniProt Q07820-1 171-327, looked up)
chain: EDELYRQSLEIISRYLREQATGAKDTKPMGRSGATSRKALETLRRVGDGVQRNHETAFQGMLRKLDIKNEDDVKSLSRVMIHVFSDGVTNWGRIVTLISFGAFVAKHLKTINQESCIEPLAESITDVLVRTKRDWLVKQRGWDGFVEFFHVEDLEGG
notes: human Mcl-1 fragment (NM_021960), residues 171-327; Cloned into the pHis-TEV vector; source: E. coli BL21(DE3), purified (Ni-NTA, Source Q15)

What all share (settings): both partners purified
Test [1] deals with B4. The test can be described thus: SPR; competitive solution binding: protein (20 nM) pre-incubated with tested BH3 peptide for at least 30 min, injected over immobilised biotin-Bim BH3 peptide; response at 30 s of dissociation.
Test [2] concerns the target B4. The test can be described thus: fluorescence polarisation; competition: Mcl-1 (20 nM) or Bcl-2 (40 nM) pre-incubated with FAM-Bid (2 nM and 2.5 nM), tested BH3 peptide added, 2-3 h; 100 mM potassium phosphate, pH 7.5, 100 ug/ml bovine gamma globulin, 0.02% sodium azide; Ki calculated from IC50.
Test [3] addresses T1, Human Bcl-xL protein with internal deletion of 45-85 and C-terminal truncation of 212-233, N-terminal 8xHis … (human, UniProt Q07817-1 1-211, internal deletion of 45–85).
T1 construct: human Bcl-xL (NM_138578), internal deletion of residues 45-85 and C-terminal truncation of 212-233; Cloned into the pHis-TEV vector (a modified pET vector); source: E. coli BL21(DE3), purified (Ni-NTA, Superdex75)
The test can be described thus: SPR; competitive solution binding: protein (20 nM) pre-incubated with tested BH3 peptide for at least 30 min, injected over immobilised biotin-Bim BH3 peptide; response at 30 s of dissociation. (SPR reads the build-up and loss of mass on a sensor chip optically.)

For test [4], the target named is T1, Human Bcl-xL protein with internal …. Nature of the test: fluorescence polarisation; competition: 30 nM Bcl-xL and 2.5 nM FAM-Bak, tested BH3 peptide added; 50 mM Tris-Bis, pH 7.4, 0.01% bovine gamma globulin; Ki calculated from IC50.
The target in test [5] is B4. Nature of the test: fluorescence polarisation; saturation experiments with FAM-Bid and Mcl-1 or Bcl-2 protein; assay buffer 100 mM potassium phosphate, pH 7.5, 100 ug/ml bovine gamma globulin, 0.02% sodium azide. (In general: In fluorescence polarisation assays a small probe gives low polarisation when free and higher when bound to something large.)
In test [6] the target is T2, Biotin-labeled Bim BH3 peptide (residues 81-106) (biotin label, position not stated).
T2 construct: Bim BH3 peptide, residues 81-106 of Swiss-Prot O43521; also called immobilized Bim BH3 peptide; Bim peptide
Nature of the test: SPR; biotin-labeled Bim BH3 peptide immobilised on a streptavidin SA chip; proteins injected at different concentrations in HBS-EP (10 mM HEPES pH 7.4, 150 mM NaCl, 3 mM EDTA, 0.005% P20).

T1 sequence (Q07817 other isoform, or with tags, fused parts or gaps internal deletion of 45–85 | internal deletion of 45–85): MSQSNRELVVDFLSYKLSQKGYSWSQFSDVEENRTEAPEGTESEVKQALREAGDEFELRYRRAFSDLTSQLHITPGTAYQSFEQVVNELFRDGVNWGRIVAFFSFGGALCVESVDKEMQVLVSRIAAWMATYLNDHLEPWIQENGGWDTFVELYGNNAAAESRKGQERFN
T2 sequence (peptide, as listed by the source): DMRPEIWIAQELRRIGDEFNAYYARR

B1: Bid BH3 peptide (residues 79-99) (peptide)
peptide: QEDIIRNIARHLAQVGDSMDR
notes: Bid BH3 peptide, residues 79-99 of Swiss-Prot P55957; also called unlabeled Bid BH3 peptide; source: provided by Dr. Peter P Roller (National Cancer Institute)
Consider B1, for which the IC50 in test [1] was 60.1 nM. Also, the inhibition constant (Ki) in test [2] was 6 nM.

B2: Noxa BH3 peptide (residues 18-43) (peptide)
peptide: PAELEVECATQLRRFGDKLNFRQKLL
notes: Noxa BH3 peptide, residues 18-43 of Swiss-Prot Q13794; source: provided by Dr. Peter P Roller (National Cancer Institute)
Consider B2, for which the figures for the IC50 in test [1] and in test [3] were 51 nM and above 30000 nM, respectively. Further, the Ki in test [4] was above 10000 nM; in test [2], 97 nM.

B3: 21-residue Bid BH3 peptide labeled at the N-terminus with 6-carboxyfluorescein succinimidyl ester (FAM-Bid) (peptide)
peptide: 6FAM-QEDIIRNIARHLAQVGDSMDR
notes: Bid BH3 peptide, residues 79-99 of Swiss-Prot P55957; also called Flu-Bid; source: synthetic peptide
For the molecule B3, the affinity in test [5], expressed as Kd, was 2.8 nM.
B4: the dissociation constant (Kd) in test [6] stood at 0.2 nM.

B5: Bad BH3 peptide (residues 103-128) (peptide)
peptide: NLWAAQRYGRELRRMSDEFVDSFKKG
notes: Bad BH3 peptide, residues 103-128 of GenBank CAG46757; source: provided by Dr. Peter P Roller (National Cancer Institute)
Take B5: the IC50 in test [1] was above 30000 nM; in test [3] it was 8.64 nM. For the same molecule, the figures for the Ki in test [4] and in test [2] were 3.2 nM and above 20000 nM, respectively.

As usually defined, the IC50 is the concentration needed to halve the response being measured. Lower therefore signals higher potency. Broadly, the Ki is the equilibrium dissociation constant of an inhibitor or competing ligand from its target. As a reminder, the Kd is the free concentration of one partner at which half of the binding sites on the other are occupied at equilibrium, for simple one-to-one binding. Read a high Kd as weaker binding.
